Data from PMC4469479.

Substrate: NCCc1ccc(O)c(O)c1
Assay: cells, lysate or membranes
Conditions: other: HEK293S cells; 14C-DA 0.3–60 μM; s.e.m.; pH 7.4

B1: dDATwt (Drosophila melanogaster) (protein)
chain: MSPTGHISKSKTPTPHDNDNNSISDERETWSGKVDFLLSVIGFAVDLANVWRFPYLCYKNGGGAFLVPYGIMLVVGGIPLFYMELALGQHNRKGAITCWGRLVPLFKGIGYAVVLIAFYVDFYYNVIIAWSLRFFFASFTNSLPWTSCNNIWNTPNCRPFESQNASRVPVIGNYSDLYAMGNQSLLYNETYMNGSSLDTSAVGHVEGFQSAASEYFNRYILELNRSEGIHDLGAIKWDMALCLLIVYLICYFSLWKGISTSGKVVWFTALFPYAVLLILLIRGLTLPGSFLGIQYYLTPNFSAIYKAEVWVDAATQVFFSLGPGFGVLLAYASYNKYHNNVYKDALLTSFINSATSFIAGFVIFSVLGYMAHTLGVRIEDVATEGPGLVFVVYPAAIATMPASTFWALIFFMMLLTLGLDSSFGGSEAIITALSDEFPKIKRNRELFVAGLFSLYFVVGLASCTQGGFYFFHLLDRYAAGYSILVAVFFEAIAVSWIYGTNRFSEDIRDMIGFPPGRYWQVCWRFVAPIFLLFITVYGLIGYEPLTYADYVYPSWANALGWCIAGSSVVMIPAVAIFKLLSTPGSLRQRFTILTTPWRDQQSMAMVLNGVTTEVTVVRLTDTETAKEPVDV
For B1, the Km was 2.1 ± 0.7 µM.
